Assay results: US20240279281A1, “Peptide Inhibitors of Interleukin-23 Receptor” (Janssen Pharmaceutica NV, priority 2023, published 2024)
Starred links: 1 amine or outer side, 2 acyl side, 3 side chain; linkers in the order of their positions; H or OH if unused. Positions of bridges follow the written chain, without caps; N, C: chain ends. Non-standard residues stand in square brackets, D forms with d. No end group written: not given here. X7 = 2‑amino‑3‑(5-methylpyridin-3-yl)propanoic acid, Cc1cncc(CC(N[*:1])C(=O)[*:2])c1; 2Nal(6-OH) = N[C@@H](Cc1ccc2cc(O)ccc2c1)C(=O)O; Trp(7-Me) = Cc1cccc2c(C[C@H](N)C(=O)O)c[nH]c12; dLys(Me3) = C[N+](C)(C)CCCC[C@@H](N)C(=O)O; AEF = NCCOc1ccc(C[C@H](N)C(=O)O)cc1; 3Pal = N[C@@H](Cc1cccnc1)C(=O)O; Pen = CC(C)(S)[C@H](N)C(=O)O; Thp = NC1(C(=O)O)CCOCC1; Sar = CNCC(=O)O

T1: interleukin-23 receptor (IL-23R), Q5VWK5
T1 chain: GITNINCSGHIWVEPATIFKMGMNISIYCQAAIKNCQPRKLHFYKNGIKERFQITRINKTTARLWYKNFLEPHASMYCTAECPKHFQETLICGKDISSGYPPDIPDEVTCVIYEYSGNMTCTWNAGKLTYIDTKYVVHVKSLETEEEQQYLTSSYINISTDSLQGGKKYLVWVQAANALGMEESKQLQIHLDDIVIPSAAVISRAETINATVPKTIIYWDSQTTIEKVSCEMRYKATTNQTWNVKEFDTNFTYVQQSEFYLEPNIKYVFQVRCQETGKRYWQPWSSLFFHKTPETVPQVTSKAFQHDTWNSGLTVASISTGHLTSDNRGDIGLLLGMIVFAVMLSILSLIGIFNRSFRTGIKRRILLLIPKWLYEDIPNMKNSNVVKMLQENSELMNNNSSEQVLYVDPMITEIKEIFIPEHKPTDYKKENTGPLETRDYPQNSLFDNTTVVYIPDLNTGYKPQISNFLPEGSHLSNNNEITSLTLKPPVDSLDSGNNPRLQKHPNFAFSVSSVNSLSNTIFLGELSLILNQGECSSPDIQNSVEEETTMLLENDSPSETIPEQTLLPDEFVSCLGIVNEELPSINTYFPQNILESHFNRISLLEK


Target: T1, interleukin-23 receptor (IL-23R), Q5VWK5
Test: cell-based or functional assay

Row | IL23R Reporter Assay IC50 [nM] | PBMC pSTAT3 IC50 [pM] | Binder
1 | < 10 |  | R[Pen]NT[Trp(7-Me)]K(Ac)[Pen][5‑(4-(2-amino-2-carboxyethyl)phenoxy)‑N,N,N‑trimethylpentan‑1‑aminium][2‑amino‑3‑(6-hydroxynaphthalen-2-yl)propanoic acid][Thp]EN[X7][Sar] (disulfide 2-7 (inferred); ends not checked) [SEQ ID NO: 48]
2 | < 10 | < 10 | [Pen]ET[Trp(7-Me)]K(Ac)[Pen][2‑amino‑3‑(4-(2-aminoethoxy)phenyl)propanoic acid][2‑amino‑3‑(6-hydroxynaphthalen-2-yl)propanoic acid][Thp]EN[3Pal][Sar] (not fully specified (bridges); ends and bridges not checked) [SEQ ID NO: 372]
3 | < 10 |  | R[Pen]NT[Trp(7-Me)]K(Ac)[Pen][2‑amino‑3‑(4-(2-aminoethoxy)phenyl)propanoic acid][2‑amino‑3‑(6-hydroxynaphthalen-2-yl)propanoic acid][Thp]K(Ac)N[X7][Sar] (disulfide 2-7 (inferred); ends not checked) [SEQ ID NO: 49]
4 | < 10 | < 10 | [Pen]ET[Trp(7-Me)][N,N,N‑trimethylhomolysine][Pen][2‑amino‑3‑(4-(2-(methylamino)ethoxy)phenyl)propanoic acid][2‑amino‑3‑(6-hydroxynaphthalen-2-yl)propanoic acid][Thp]EN[3Pal][Sar] (not fully specified (bridges); ends and bridges not checked) [SEQ ID NO: 382]
5 | < 10 |  | [Pen]NT[Trp(7-Me)]K(Ac)[Pen][2‑amino‑3‑(4-(2-aminoethoxy)phenyl)propanoic acid][2‑amino‑3‑(6-hydroxynaphthalen-2-yl)propanoic acid][Thp]EN[3Pal][Sar] (not fully specified (bridges); ends and bridges not checked) [SEQ ID NO: 380]
6 | < 10 | < 10 | [Pen]ET[Trp(7-Me)]K(Ac)[Pen][AEF][2Nal(6-OH)][Thp]EN[3Pal][Sar] (not fully specified (bridges); ends and bridges not checked) [SEQ ID NO: 397]
7 | < 10 | < 10 | [Pen]NT[Trp(7-Me)]K(Ac)[Pen][2‑amino‑3‑(4-(2-aminoethoxy)phenyl)propanoic acid][2‑amino‑3‑(6-hydroxynaphthalen-2-yl)propanoic acid][Thp]EN[3Pal][Sar] (not fully specified (bridges); ends and bridges not checked) [SEQ ID NO: 378]
8 | < 10 |  | [Pen]NT[Trp(7-Me)]K(Ac)[Pen][2‑amino‑3‑(4-(2-aminoethoxy)phenyl)propanoic acid][2‑amino‑3‑(6-hydroxynaphthalen-2-yl)propanoic acid][Thp]EN[3Pal][Sar] (not fully specified (bridges); ends and bridges not checked) [SEQ ID NO: 379]
9 | < 10 | < 10 | [dLys(Me3)][Pen]NT[Trp(7-Me)]K(Ac)[Pen][2‑amino‑3‑(4-(2-aminoethoxy)phenyl)propanoic acid][2‑amino‑3‑(6-hydroxynaphthalen-2-yl)propanoic acid][Thp]EN[3Pal][Sar] (not fully specified (bridges); ends and bridges not checked) [SEQ ID NO: 388]
